# Test: label from the status in PepcDB records
row,Sequence,protein production
1,MKLLIKKITYIIFILCSYCSYGEAKIQLPSILGNGMVLQQKSEVRLWGKATPNKKVTIYTSWNAQQQEVNSNKKGDWIVTVTTPEAGGPYTIRISDGEELLLDDVLIGEVWLCSGQSNMEMPVKGFRGQPAAESQNTIVNVNPNRSLRLFTVQRAYSSILEEDVTGQWEKNTPKSVSTFSAVAYYYGDQLQKVLGIPVGLIHASWSGSSIEPWISKENLLQFPEVDLTPAENPQLKYANGTPTVLYNAMIKPLENYNIKGMIWYQGESNSARPEQYQRLFAVWAKQNRALFRSKDLPIYYTEIAPVASPVDRPFQRAIFREAQLESMHEVSNTGMAFTNDLGSEKFIHAPKKREIGQRLAYWALAKTYQLEGFEYSGPIHRSYMKNGKIIEILFDHADDGLNPENEPLVGFEIASEDSIFYPANAEIINGTSRVKVWSDKVAQPVYVRYAFRNFLRGNLVNNAGLPAAPFRMDLRKMDFQNPEKLGWARVTTFGKLPEYISVYHSPEWIESTRTNAYIAVVDTKKGGSLDVGGADSGVKTPIEFYQSEKRKPSIVLNGGYFANGRTVSLICKNGKILSDNISVVNRLLEGKKTAYYPTRSVFSLYTDGTYHVDWIYKSAQQTYAYDMPALNSSTRPPLSVPSKGFPKGAKVWTAEMGIGAGPILIKDGTIRNSWVEELLDVASGINPQTCQPRSAVGVTQDGKLILFVCEGREQTPDIPGMTLAQLARLMRSFGCVDALNLDGGGSSCMLINGKETIKPCNKYHHQRPVATVLFAR,failed
2,MAQREIRLVDNEYPSPSMTHPPIPLSDIALTGIFEISKILTSPARLEITLANVVNLLQSFLQMRNGVVSLLADDGVPDITVGVGWNEGSDNRYRARLPQKAIDQIVATAVPLVADNVSAHPMFTAADAMALGATDEIRVSFIGVPIRIDSRVVGTLSIDRVRDGRSHFRMDADVRFLTMVANLIGQTVKLHRVVARDRERLMAESHRLQKELS,failed
3,MNFIQSNLNNLLAIAWFALCWGGYTRYAIWKGRDTACLASVLHLYREDWMRRMLLRDNRIADASVIGNLERNASFFASSTLIILAGILTVLGASDRALSLLADLPLVQQTSQGMSEIKLLCLAMVFVYAFFTFSWCMRQYNFAAVLVGSAPMIGERLVNELERKAFASRAARVLSLAANQFNLGLRSYYFGMAMLSWFISPWLFMAMSVGVVLILYRREFHSDVLDVMVFTPTESVLSEPAKESSVVSN,failed
4,DHHAWHRLLDRALSEQHFQLYFQPVVAARDTHLVLHYKVLSRLLDEQGQTIPAGRFLPWLERFGWTSRLDLLMLEQVLRQMASHEDCLALNLSAATLADPHALNRVFEILRQHSDLGPRLTLEIGEEQLPEQAMLEQLTRRLRELGFSLSLQRFGGRFSMIGNLARLGLAYLKIDGSYIRDIDQESDKRLFIEAIQRAAHSIDLPLIAERVETEGELQVIREMGLYGVQGQLFGEPAPWG,not failed
5,IRTHLNLPSDKKVIMYAPTWRDDEFVSKGKYLFELKIDLDNLYKELGDDYVILLRMHYLISNALDLSGYENFAIDVSNYNDVSELFLISDCLITDYSSVMFDYGILKRPQFFFAYDIDKYDKGLRGFYMNYMEDLPGPIYTEPYGLAKELKNLDKVQQQYQEKIDAFYDRFCSVDNGKASQYIGDLIHKDIKEQ,failed
6,MDCKKVIADYWNLRSSTYTNGENGFDAEERIIWRRMLENFLPPGQRLKVLDVGTGPGFLALLFAEMGHEVTAVDISMGMLEKARNNAKTLGVKVDLFHGDAEKLPFEDCYFDLVVNKYLLWTLPQPEIAVQEWMRVLKPGGRVFAIDGNWFNPRPDKKVKRWITGVVNPDMNKNPSRSFFNEFYGPIRKALPLYEDISPENVSVVFSKMGFENTAVNPLQEAQKFKKSKLPFIQRFLRDTPIFLITGQKATE,failed
7,MGHHHHHHSHMGWDLTVKMLAGNEFQVSLSSSMSVSELKAQITQKIGVHAFQQRLAVHPSGVALQDRVPLASQGLGPGSTVLLVVDKSDEPLS,failed
8,MFHKALWMRQWKQGKYIILLFWLTSLYQLPYKYYQEAQTQLKLSKMKFGDYTYYYSYYFQTSDGAVFFQGATLIALACLLIGWERNNQSNDFLFSMPFKRKDIFLTKWWLGVLNIITVQIICLISMYGIKNMSFHNEYQTFAPFYSYFLYATVVLIAIYTFALFIGTITGHIFSQSILTIILLFLPYGFGLLISGFIYSHTQWSVDAMGEIEYHTHEYLQHIGIISPLEYFSITYDYHPIETFDDYGNKLPSVSQDNPTERISVPSPWTLLTPFSYIITFLSIATFLYTRTPNEQSGKILLFPNLQKWFIICTVLCFGLLGGRILGGRDALLSYYVGFFLFATISYFIFTRLLKLKFAFAGK,failed

# Reference: a protein production outcome set (Wang et al. 2014)
